Source: patent US20210101998A1 (Pfizer, published 2021)
Substitutions are numbered along the chain they refer to. Like-named read-outs stand apart in the source and are kept apart here.

Assays:
[1] = biological target: T1, cyno TFPI K2 (cynomolgus monkey, UniProt Q28864 116-177 (rhesus entry), limits assumed); assay: not told
T1 construct: K2 fragment cut out of cynTFPI K1K2 with human neutrophil elastase, residual AviTag trimmed with AspN; also called Cynomolgus TFPI K2 domain; cyno K2
Method: Based on buried surface area (BSA) and percent BSA (% BSA) for residues at the Fab TFPI K1K2 interface, the epitope and paratope of the complex were determined.

[2] = biological target: T2, cyno K1 (cynomolgus monkey, UniProt Q28864 29-115 (rhesus entry), limits assumed); assay: not told
T2 construct: also called K1 domain alone
T2 chain: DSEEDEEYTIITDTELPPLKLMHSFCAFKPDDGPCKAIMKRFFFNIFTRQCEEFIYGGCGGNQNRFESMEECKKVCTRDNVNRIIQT

[3] = biological target: T3, humTFPI K1K2 (human); assay: SPR, antibody ligand, TFPI analyte
T3 construct: Biotinylated on the AviTag for ELISA; also called Human TFPIα K1K2; humTFPI K1K2-aviHis10
Method: (§1) The flow cells were activated by injecting a 1:1 mixture of 400 mM 1-Ethyl-3-(3-dimethylaminopropyl) carbodiimide hydrochloride (EDC) and N-hydroxysuccinimide (NHS) for 7 minutes at a flow rate of 10 μl/minute. Anti-human IgG antibody was diluted to 25 μg/ml in 10 mM Sodium Acetate pH 5.0 and injected over all flow cells for 7 minutes at 10 ul/minute. All flow cells were blocked with 1 M Ethanolamine-HCL (ETH) for 7 minutes at 10 μl/minute. Final immobilization level of the capture antibody was approximately 10,000 resonance units (RU). The running buffer for immobilization and kinetics was 10 mM HEPES pH 7.4, 150 mM NaCl, 3 mM EDTA, 0.05% (v/v) Tween-20 (HBS-EP+). […] Flow cell 1 was used as a reference surface. […] At the end of each cycle, the entire anti-IgG surface was regenerated by a 60 second pulse of 3 M MgCl2. Kinetic assays were conducted at 25° C. at a collection rate of 10 Hz on a BIAcore T200 instrument (GE Healthcare). Rate constants and affinities were determined by fitting the data to a 1:1 model in BIAcore T200 Evaluation software version 1.0 (GE).

[4] = biological target: T4, murTFPI K1K2 (mouse); assay: SPR, antibody ligand, TFPI analyte
T4 construct: also called Mouse TFPI K1K2; mouse TFPI
T4 chain: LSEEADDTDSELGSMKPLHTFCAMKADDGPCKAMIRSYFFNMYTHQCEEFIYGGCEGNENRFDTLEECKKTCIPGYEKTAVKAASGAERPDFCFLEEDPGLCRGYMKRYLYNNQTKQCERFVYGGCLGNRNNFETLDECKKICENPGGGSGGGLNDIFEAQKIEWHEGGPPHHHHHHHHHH
Method: as §1

[5] = biological target: T5, cynTFPI K1K2 (cynomolgus monkey); assay: SPR, antibody ligand, TFPI analyte;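 also: surface plasmon resonance on a BIAcore T200 at 25 °C, test antibody captured on immobilized anti-human IgG, TFPI K1K2 flowed as analyte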
T5 construct: also called Cynomolgus Monkey TFPI K1K2; cyno TFPI K1K2
Method: as §1

[6] = biological target: T6, rabTFPI K1K2 (rabbit, limits assumed); assay: SPR, antibody ligand, TFPI analyte
T6 construct: also called Rabbit TFPI K1K2; rabbit TFPI
T6 chain: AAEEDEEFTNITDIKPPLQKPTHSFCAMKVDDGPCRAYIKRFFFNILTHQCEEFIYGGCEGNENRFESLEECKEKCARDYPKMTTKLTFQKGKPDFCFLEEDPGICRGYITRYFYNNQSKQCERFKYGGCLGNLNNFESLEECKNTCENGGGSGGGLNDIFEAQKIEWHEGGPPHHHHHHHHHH
Method: as §1

[7] = biological target: T3, humTFPI K1K2; assay: SPR, summary table
Method: as §1

[8] = biological target: T4, murTFPI K1K2; assay: SPR, summary table
Method: as §1

[9] = biological target: T5, cynTFPI K1K2; assay: SPR, summary table
Method: as §1

[10] = biological target: T6, rabTFPI K1K2; assay: SPR, summary table
Method: as §1

[11] = biological target: T3, humTFPI K1K2; assay: cell-based or functional assay
[12] = biological target: T7, ratTFPI K1K2 (rat); assay: SPR, summary table
T7 chain: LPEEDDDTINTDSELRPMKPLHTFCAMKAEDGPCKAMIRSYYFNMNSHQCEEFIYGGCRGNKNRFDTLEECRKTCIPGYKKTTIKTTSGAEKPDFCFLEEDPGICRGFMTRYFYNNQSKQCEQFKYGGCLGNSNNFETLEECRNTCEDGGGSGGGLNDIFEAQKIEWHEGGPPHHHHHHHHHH
Method: as §1

[13] = biological target: T3, humTFPI K1K2; assay: cell-based or functional assay; remark: listed apart in the source
[14] = biological target: T3, humTFPI K1K2; assay: SPR, antibody ligand, TFPI analyte; remark: listed apart in the source
Method: as §1

[15] = biological target: T3, humTFPI K1K2; assay: ELISA, biotinylated TFPI on streptavidin plate
[16] = biological target: T6, rabTFPI K1K2; assay: ELISA, biotinylated TFPI on streptavidin plate
[17] = biological target: T3, humTFPI K1K2; assay: cell-based or functional assay; remark: listed apart in the source
[18] = biological target: T3, humTFPI K1K2; assay: SPR, antibody ligand, TFPI analyte; remark: listed apart in the source
[19] = biological target: T4, murTFPI K1K2; assay: SPR, antibody ligand, TFPI analyte
[20] = biological target: T3, humTFPI K1K2; assay: SPR, antibody ligand, TFPI analyte; remark: listed apart in the source
Method: as §1

[21] = biological target: T3, humTFPI K1K2; assay: SPR, antibody ligand, TFPI analyte; remark: listed apart in the source
Method: as §1

[22] = biological target: T6, rabTFPI K1K2; assay: SPR, antibody ligand, TFPI analyte
Method: as §1

[23] = biological target: T3, humTFPI K1K2; assay: ELISA, biotinylated TFPI on streptavidin plate; remark: listed apart in the source
[24] = biological target: T6, rabTFPI K1K2; assay: ELISA, biotinylated TFPI on streptavidin plate
[25] = biological target: T3, humTFPI K1K2; assay: SPR, antibody ligand, TFPI analyte; remark: listed apart in the source
Method: as §1

[26] = biological target: humTFPI K1K2K3 (human); assay: cell-based or functional assay
[27] = biological target: T7, ratTFPI K1K2; assay: SPR, antibody ligand, TFPI analyte;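 also: surface plasmon resonance on a BIAcore T200 at 25 °C, test antibody captured on immobilized anti-human IgG, TFPI K1K2 flowed as analyte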
Method: as §1

B1: 2A8 (antibody, human IgG1, lambda, V domains shown)
VH: QVQLVESGGGLVQPGGSLRLSCAASGFTFRSYGMSWVRQAPGKGLEWVSSIRGSSSSTYYADSVKGRFTISRDNSKNTLYLQMNSLRAEDTAVYYCARKYRYWFDYWGQGTLVTVSS
VL: DIELTQPPSVSVAPGQTARISCSGDNLRNYYAHWYQQKPGQAPVVVIYYDNNRPSGIPERFSGSNSGNTATLTISGTQAEDEADYYCQSWDDGVPVFGGGTKLTVLG
binding result [1]: no binding
binding result [2]: no binding
Kd [3]: 10.6 nM
koff [3]: 0.00377 s⁻¹
kon [3]: 355000 M⁻¹ s⁻¹
Kd [4]: 33.6 nM
koff [4]: 0.00632 s⁻¹
kon [4]: 191000 M⁻¹ s⁻¹
Kd [5]: 13.2 nM
koff [5]: 0.00306 s⁻¹
kon [5]: 237000 M⁻¹ s⁻¹
Kd [6]: 1.69 nM
koff [6]: 0.00123 s⁻¹
kon [6]: 730000 M⁻¹ s⁻¹

B2: 2A8-200 (antibody, human IgG1, lambda, V domains shown)
VH: B1 VH with S35D, S55R, K99L
VL: B1 VL with Y48F, N51V, D91W
notes: also called Anti-TFPI-2A8-200
binding result [1]: no binding
binding result [2]: no binding
Kd [7]: 0.327 nM
Kd [8]: 0.455 nM
Kd [9]: 0.637 nM
Kd [10]: 0.145 nM
FVIIa/TF/Xa EC50 [11]: 4.84 nM
Xa Inhibition Assay EC50 [11]: 2.42 nM
Kd [3]: 0.327 nM
koff [3]: 0.000381 s⁻¹
kon [3]: 1.16e+06 M⁻¹ s⁻¹
Kd [4]: 0.455 nM
koff [4]: 0.00117 s⁻¹
kon [4]: 2.54e+06 M⁻¹ s⁻¹
Kd [5]: 0.637 nM
koff [5]: 0.000809 s⁻¹
kon [5]: 1.25e+06 M⁻¹ s⁻¹
Kd [6]: 0.145 nM
koff [6]: 0.000277 s⁻¹
kon [6]: 1.92e+06 M⁻¹ s⁻¹

B3: hz4D8 (antibody, human IgG1, kappa, V domains shown)
VH: EVQLVESGGGLVQPGGSLRLSCAASGYTFTDYNLDWVRQAPGKGLEWVADINPINGATLYNQKFKGRFTISRDQAKNSLYLQMNSLRAEDTAVYYCARYYGDYDAMDYWGQGTLVTVSS
VL: DIQMTQSPSSLSASVGDRVTITCKASQDVHTAVAWYQQKPGKAPKLLIYWASTRHTGVPSRFSGSGSGTDYTLTISSLQPEDFATYYCQQHYTTPYTFGQGTKLEIKR
notes: also called 4D8-Vk1.1 × VH1.4; 4D8 Vk 1.1 × VH 1.4
Kd [7]: 0.42 nM
binding result [8]: no binding
Kd [9]: 0.067 nM
Kd [10]: 0.502 nM
binding result [12]: no binding
FXa EC50 [13]: 1.87 nM
FXa-FVIIa EC50 [13]: 1.57 nM
FVIIa/TF/Xa EC50 [11]: 0.4 nM
Xa Inhibition Assay EC50 [11]: 6.92 nM
Kd [14]: 0.293 nM
koff [14]: 5.28e-05 s⁻¹
kon [14]: 221000 M⁻¹ s⁻¹
Kd [3]: 0.42 nM
koff [3]: 0.00132 s⁻¹
kon [3]: 3.16e+06 M⁻¹ s⁻¹
Kd [5]: 0.067 nM
koff [5]: 0.00195 s⁻¹
kon [5]: 2.93e+07 M⁻¹ s⁻¹
Kd [6]: 0.502 nM
koff [6]: 0.0029 s⁻¹
kon [6]: 3.16e+06 M⁻¹ s⁻¹
EC50 [15]: 0.0493 nM
EC50 [16]: 0.0716 nM

B4: TFPI-24 (antibody, human IgG1, lambda, V domains shown)
VH: EVQLVESGGGSVQPGRSLRLSCAVSGLTIDNYAMQWVRQRPGKGLEWVSGISGNSRSIGYADSVKGRLTISRDNAKNSLYLQIDSLRADDTALYYCAIFLHESDYWGQGTLVTVSS
VL: QSVLTQPPSVSGTPGQRVTISCSGSTSNIGTMYVHWYQHVPGTAPKLLIYRNNHRPSGVPDRFSGSKSGTSGSLAISGLRSEDEADYYCLAWDDTLRAYVFGTGTKVTVLG
notes: Human IgG1-3M from phage display; also called mAb-TFPI-24; clone 24
FXa EC50 [17]: 23 nM
FXa-FVIIa EC50 [17]: 9.3 nM
Kd [18]: 5.46 nM
koff [18]: 0.000862 s⁻¹
kon [18]: 159000 M⁻¹ s⁻¹
Kd [19]: 24.1 nM
koff [19]: 0.00596 s⁻¹
kon [19]: 248000 M⁻¹ s⁻¹
koff [20]: 0.000862 s⁻¹
kon [20]: 159000 M⁻¹ s⁻¹

B5: mu-hu 4D8 chimera (antibody, human IgG1, kappa)
light: DIVMTQSHKFMSTSVGDRVSITCKASQDVHTAVAWYQQKPGQSPRLLIYWASTRHTGVPDRFTGCGSGTDYTLTISSVQAEDLALYYCQQHYTTPYTFGGGTKLEMKRTVAAPSVFIFPPSDEQLKSGTASVVCLLNNFYPREAKVQWKVDNALQSGNSQESVTEQDSKDSTYSLSSTLTLSKADYEKHKVYACEVTHQGLSSPVTKSFNRGEC
heavy: EVLLQQSGPELVKPGASVKIPCKASGYTFTDYNLDWVKQSHGKSLEWIGDINPINGATLYNQKFKGKATLTVDQSSSTAYMELRSLTSEDTAVYYCSIYYGDYDAMDYWGQGASVTVSSASTKGPSVFPLAPSSKSTSGGTAALGCLVKDYFPEPVTVSWNSGALTSGVHTFPAVLQSSGLYSLSSVVTVPSSSLGTQTYICNVNHKPSNTKVDKKVEPKSCDKTHTCPPCPAPEAAGAPSVFLFPPKPKDTLMISRTPEVTCVVVDVSHEDPEVKFNWYVDGVEVHNAKTKPREEQYNSTYRVVSVLTVLHQDWLNGKEYKCKVSNKALPAPIEKTISKAKGQPREPQVYTLPPSREEMTKNQVSLTCLVKGFYPSDIAVEWESNGQPENNYKTTPPVLDSDGSFFLYSKLTVDKSRWQQGNVFSCSVMHEALHNHYTQKSLSLSPG
notes: Mouse variable regions on human IgG1 3M and human kappa; also called hu-mu 4D8 chimera; mouse-human chimeric antibody 4D8
Kd [21]: 1.19 nM
koff [21]: 0.00114 s⁻¹
kon [21]: 958000 M⁻¹ s⁻¹
Kd [22]: 0.63 nM
koff [22]: 0.00126 s⁻¹
kon [22]: 2.01e+06 M⁻¹ s⁻¹
EC50 [23]: 0.0577 nM
EC50 [24]: 0.068 nM

B6: TFPI-23 (antibody, human IgG1, lambda)
light: QSVLTQPPSVSGAPGQRVTISCTGSSSNIGAGYDVHWYQQLPGTAPKLLIYGNSNRPSGVPDRFSGSKSGTSASLAITGLQAEDEADYYCQSYDSSLSGSGVFGGGTKLTVLGQPKAAPSVTLFPPSSEELQANKATLVCLISDFYPGAVTVAWKADSSPVKAGVETTTPSKQSNNKYAASSYLSLTPEQWKSHRSYSCQVTHEGSTVEKTVAPTECS
heavy: not shown
notes: Human IgG1-3M from phage display; also called mAb-TFPI-23; clone 23
FXa EC50 [17]: 46 nM
FXa-FVIIa EC50 [17]: 32.2 nM
Kd [18]: 9.89 nM
Kd [19]: 1.46 nM
Kd [25]: 9.89 nM

B7: TFPI-106 (antibody, human IgG1, lambda)
light: B6 light
heavy: not shown
EC50, neutralization of FVIIa/TF/FXa inhibition [26]: 8.47 nM
Kd [10]: 4.25 nM
Kd [12]: 1.57 nM
FVIIa/TF/Xa EC50 [11]: 4.3 nM
Xa Inhibition Assay EC50 [11]: 18.1 nM
Kd [6]: 4.25 nM
Kd [27]: 1.57 nM
